In article PMC3408419 (Molecular Biology of the Cell, 2012):
“And” between values parts separate entries of the source, which are not always exact repeats. Equal entries are not always repeated.

Tests used:
[1] = target: MBP-Sec16-mOrange (S. cerevisiae) (UniProt P48415); assay: single-molecule photobleaching
Sec23/24 complex = Sec23/24 complex (S. cerevisiae, UniProt P15303;P40482); assay: liposome flotation
Sec23/24 complex, sequence (P15303 whole entry, chain 1 of 2): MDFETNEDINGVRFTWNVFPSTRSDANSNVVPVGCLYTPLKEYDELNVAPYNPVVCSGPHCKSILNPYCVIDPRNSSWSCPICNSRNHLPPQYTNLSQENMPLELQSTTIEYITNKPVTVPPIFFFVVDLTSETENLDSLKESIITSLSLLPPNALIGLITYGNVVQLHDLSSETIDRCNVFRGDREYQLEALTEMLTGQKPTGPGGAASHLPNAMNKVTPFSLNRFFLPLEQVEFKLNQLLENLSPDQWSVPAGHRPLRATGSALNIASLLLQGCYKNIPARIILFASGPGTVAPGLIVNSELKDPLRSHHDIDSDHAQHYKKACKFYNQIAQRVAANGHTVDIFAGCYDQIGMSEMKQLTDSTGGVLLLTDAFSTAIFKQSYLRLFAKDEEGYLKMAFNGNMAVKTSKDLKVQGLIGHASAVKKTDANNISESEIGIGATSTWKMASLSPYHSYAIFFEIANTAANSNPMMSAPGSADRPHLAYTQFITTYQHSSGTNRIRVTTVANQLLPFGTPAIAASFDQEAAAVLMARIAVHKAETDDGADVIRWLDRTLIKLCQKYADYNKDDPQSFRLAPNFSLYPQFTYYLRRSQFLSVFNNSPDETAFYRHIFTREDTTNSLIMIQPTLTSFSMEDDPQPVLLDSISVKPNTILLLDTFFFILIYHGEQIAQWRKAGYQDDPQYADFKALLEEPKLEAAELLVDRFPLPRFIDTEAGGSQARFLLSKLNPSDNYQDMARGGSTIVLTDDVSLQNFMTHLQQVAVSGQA
Sec23/24 complex, sequence (P40482 whole entry, chain 2 of 2): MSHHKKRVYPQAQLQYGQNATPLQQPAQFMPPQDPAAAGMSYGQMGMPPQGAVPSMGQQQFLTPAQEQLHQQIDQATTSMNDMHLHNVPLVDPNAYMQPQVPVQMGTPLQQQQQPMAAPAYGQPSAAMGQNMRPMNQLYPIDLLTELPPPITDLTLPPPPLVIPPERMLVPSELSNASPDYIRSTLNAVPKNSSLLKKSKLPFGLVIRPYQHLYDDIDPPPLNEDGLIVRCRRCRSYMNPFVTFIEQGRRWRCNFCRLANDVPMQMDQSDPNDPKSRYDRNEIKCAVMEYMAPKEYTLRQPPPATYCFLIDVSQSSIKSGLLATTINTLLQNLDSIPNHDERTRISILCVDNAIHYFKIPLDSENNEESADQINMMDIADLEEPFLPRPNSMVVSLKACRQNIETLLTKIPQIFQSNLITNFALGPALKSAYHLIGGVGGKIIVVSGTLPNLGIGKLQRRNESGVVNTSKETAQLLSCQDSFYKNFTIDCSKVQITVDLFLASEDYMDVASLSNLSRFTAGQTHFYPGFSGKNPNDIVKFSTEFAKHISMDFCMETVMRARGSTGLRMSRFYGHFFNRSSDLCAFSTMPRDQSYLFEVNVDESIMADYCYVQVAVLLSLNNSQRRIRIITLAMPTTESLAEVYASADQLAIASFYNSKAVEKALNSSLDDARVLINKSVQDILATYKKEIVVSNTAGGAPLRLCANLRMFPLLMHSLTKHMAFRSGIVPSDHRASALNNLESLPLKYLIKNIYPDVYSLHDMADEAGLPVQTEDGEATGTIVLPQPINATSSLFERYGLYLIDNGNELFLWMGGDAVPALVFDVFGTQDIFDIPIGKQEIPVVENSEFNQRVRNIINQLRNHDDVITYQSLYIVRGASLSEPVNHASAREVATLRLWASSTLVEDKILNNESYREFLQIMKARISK

## MBP-Sec16-mOrange, P48415 1-2195
[1]
  stoichiometry N: 4 and 6

B1: Sec13/31 complex (complex)
chain 1: MVVIANAHNELIHDAVLDYYGKRLATCSSDKTIKIFEVEGETHKLIDTLTGHEGPVWRVDWAHPKFGTILASCSYDGKVLIWKEENGRWSQIAVHAVHSASVNSVQWAPHEYGPLLLVASSDGKVSVVEFKENGTTSPIIIDAHAIGVNSASWAPATIEEDGEHNGTKESRKFVTGGADNLVKIWKYNSDAQTYVLESTLEGHSDWVRDVAWSPTVLLRSYLASVSQDRTCIIWTQDNEQGPWKKTLLKEEKFPDVLWRASWSLSGNVLALSGGDNKVTLWKENLEGKWEPAGEVHQ
chain 2: MVKLAEFSRTATFAWSHDKIPLLVSGTVSGTVDANFSTDSSLELWSLLAADSEKPIASLQVDSKFNDLDWSHNNKIIAGALDNGSLELYSTNEANNAINSMARFSNHSSSVKTVKFNAKQDNVLASGGNNGEIFIWDMNKCTESPSNYTPLTPGQSMSSVDEVISLAWNQSLAHVFASAGSSNFASIWDLKAKKEVIHLSYTSPNSGIKQQLSVVEWHPKNSTRVATATGSDNDPSILIWDLRNANTPLQTLNQGHQKGILSLDWCHQDEHLLLSSGRDNTVLLWNPESAEQLSQFPARGNWCFKTKFAPEAPDLFACASFDNKIEVQTLQNLTNTLDEQETETKQQESETDFWNNVSREESKEKPTVFHLQAPTWYGEPSPAAHWAFGGKLVQITPDGKGVSITNPKISGLESNTTLSEALKTKDFKPLINQRLVKVIDDVNEEDWNLLEKLSMDGTEEFLKEALAFDNDESDAQDDANNEKEDDGEEFFQQIETNFQPEGDFSLSGNIEQTISKNLVSGNIKSAVKNSLENDLLMEAMVIALDSNNERLKESVKNAYFAKYGSKSSLSRILYSISKREVDDLVENLDVSQWKFISKAIQNLYPNDIAQRNEMLIKLGDRLKENGHRQDSLTLYLAAGSLDKVASIWLSEFPDLEDKLKKDNKTIYEAHSECLTEFIERFTVFSNFINGSSTINNEQLIAKFLEFINLTTSTGNFELATEFLNSLPSDNEEVKTEKARVLIASGKSLPAQNPATATTSKAKYTNAKTNKNVPVLPTPGMPSTTSIPSMQAPFYGMTPGASANALPPKPYVPATTTSAPVHTEGKYAPPSQPSMASPFVNKTNSSTRLNSFAPPPNPYATATVPATNVSTTSIPQNTFAPIQPGMPIMGDYNAQSSSIPSQPPINAVSGQTPHLNRKANDGWNDLPLKVKEKPSRAKAVSVAPPNILSTPTPLNGIPANAASTMPPPPLSRAPSSVSMVSPPPLHKNSRVPSLVATSESPRASISNPYAPPQSSQQFPIGTISTANQTSNTAQVASSNPYAPPPQQRVATPLSGGVPPAPLPKASNPYAPTATTQPNGSSYPPTGPYTNNHTMTSPPPVFNKPPTGPPPISMKKRSNKLASIEQNPSQGATYPPTLSSSASPLQPSQPPTLASQVNTSAENVSHEIPADQQPIVDFLKEELARVTPLTPKEYSKQLKDCDKRLKILFYHLEKQDLLTQPTIDCLHDLVALMKEKKYKEAMVIHANIATNHAQEGGNWLTGVKRLIGIAEATLN
Sec23/24 complex
  binding result: binds
